Patent US20110207152A1

What was measured:
[1] = target: F-actin prepared from rabbit muscle actin (rabbit) (UniProt P68135); experiment: cell-based or functional assay
[2] = target: native human plasma gelsolin (human) (UniProt P06396); experiment: sandwich ELISA on human plasma; detection antibody GS2C4 (HRP), capture antibody GF2D6
[3] = target: native human plasma gelsolin (human) (UniProt P06396); experiment: sandwich ELISA on human plasma; detection antibody GS2C4 (HRP), capture antibody GN3E9
[4] = target: native human plasma gelsolin (human) (UniProt P06396); experiment: sandwich ELISA on human plasma; detection antibody GS2C4 (HRP), capture antibody GC1C10

Chain of native human plasma gelsolin (P06396 28-782 limits assumed): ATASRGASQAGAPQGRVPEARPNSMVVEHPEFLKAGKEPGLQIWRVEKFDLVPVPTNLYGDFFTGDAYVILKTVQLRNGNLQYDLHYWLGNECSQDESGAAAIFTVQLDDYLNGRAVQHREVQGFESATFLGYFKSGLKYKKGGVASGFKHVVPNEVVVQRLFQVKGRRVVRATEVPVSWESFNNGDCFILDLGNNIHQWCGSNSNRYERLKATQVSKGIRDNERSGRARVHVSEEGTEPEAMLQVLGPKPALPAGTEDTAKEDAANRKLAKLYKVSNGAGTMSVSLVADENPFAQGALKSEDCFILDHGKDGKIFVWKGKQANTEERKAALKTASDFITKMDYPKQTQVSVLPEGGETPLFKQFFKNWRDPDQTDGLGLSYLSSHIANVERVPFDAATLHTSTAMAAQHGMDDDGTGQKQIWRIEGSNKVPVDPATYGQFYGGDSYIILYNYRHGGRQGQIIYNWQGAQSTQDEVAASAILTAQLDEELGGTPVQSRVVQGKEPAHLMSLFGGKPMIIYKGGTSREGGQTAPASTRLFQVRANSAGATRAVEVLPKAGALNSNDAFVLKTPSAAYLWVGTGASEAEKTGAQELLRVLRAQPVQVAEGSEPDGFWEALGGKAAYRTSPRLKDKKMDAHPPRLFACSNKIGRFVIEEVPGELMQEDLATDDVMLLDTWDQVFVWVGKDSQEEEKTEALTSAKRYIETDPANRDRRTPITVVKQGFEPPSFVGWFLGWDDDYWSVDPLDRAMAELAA
Chain of native human plasma gelsolin (human) (P06396 28-782 limits assumed): as above

% of F-actin at 0.1 mg/ml gelsolin (F-actin severing assay) [1] | % of F-actin at 0.5 mg/ml gelsolin (F-actin severing assay) [1] | % of F-actin at 1.0 mg/ml gelsolin (F-actin severing assay) [1] | OD (sandwich ELISA pairing) [2] | OD (sandwich ELISA pairing) [3] | OD (sandwich ELISA pairing) [4] | Substance
35% | 21% | 12% | – | – | – | native human plasma gelsolin (from UniProt P06396 28-782)
– | – | – | 0.013 OD | 0.025 OD | 0.014 OD | commercial anti-human gelsolin antibody GS2C4 (Sigma Chemical Co.)
